Assay results as given in PMC5216119, “An allosteric conduit facilitates dynamic multisite substrate recognition by the SCF^Cdc4 ubiquitin ligase” (Nature Communications, 2017).
Positions count from the first letter of the chain named. Read-outs that look alike come from different tables or passages of the source. Square brackets hold non-standard residues; d marks the D form. Ends that are not written are not given here. Peptide text beside a SMILES is read from it. pT = C[C@@H](OP(=O)(O)O)[C@H](N)C(=O)O; pS = N[C@@H](COP(=O)(O)O)C(=O)O

Tests used:
[1] = biological target: T1, R655Q Cdc4^WD40 (Saccharomyces cerevisiae, UniProt P07834, R655Q); assay: Intrinsic Trp fluorescence binding, R655Q Cdc4^WD40; parameters: species or system yeast; settings: in vitro Trp fluorescence
T1 construct: Cdc4^WD40 (residues 367-744) was expressed from pET-Sumo (Invitrogen); His-SUMO (pET-Sumo vector) (N, cleaved yes); made in house; host or cells: Escherichia coli (host printed only for the NMR samples)

[2] = biological target: T2, R664Q Cdc4^WD40 (Saccharomyces cerevisiae, UniProt P07834, R664Q); type: binding, yeast; settings: in vitro Trp fluorescence
T2 construct: Cdc4^WD40 (residues 367-744) was expressed from pET-Sumo (Invitrogen); His-SUMO (pET-Sumo vector) (N, cleaved yes); made in house; host or cells: Escherichia coli (host printed only for the NMR samples)
Procedure: We assessed the contribution of the allosteric pocket to substrate interactions by mutation of positively charged Arg655 and Arg664 residues, both of which are required for SCF-I2 inhibition. We generated Arg655Gln and Arg664Gln substitution mutants to minimize disruptive steric effects on the allosteric pocket and WD40 domain.
The binding affinities of three different peptides (Sic1^20pS69, Sic1^20pS80 and Sic1^20pS69/S80) for wild-type and mutant (Arg664Gln) Cdc4^WD40 were measured by intrinsic Trp fluorescence-binding experiments. The measurements were carried out by using an ATF 105 spectrometer (AVIV Instruments, Lakewood, NJ) equipped with an automatic titrator. The binding of the peptide fragments were monitored by using intrinsic tryptophan fluorescence with an excitation wavelength of 298 nm and an emission wavelength of 366 nm. All measurements were performed in 50 mM Tris, 150 mM NaCl, 5 mM DTT, pH 7.5 at 20 °C. The concentration of Cdc4 was 0.5 μM for all measurements. […] Association constants were calculated using the formula Ka=1/Kd. Prism 4.0 software (GraphPad Software, San Diego, CA) was used for statistical analysis (non-paired Student t test), and P values <0.05 were considered significant. Each experiment was repeated at least three times.

[3] = biological target: T3, R664Q Cdc4^WD40 (yeast, UniProt P07834 367-744, R664Q); assay: other fluorescence titration; intrinsic Trp fluorescence (excitation 298 nm, emission 366 nm); 0.5 μM Cdc4, ligand titrated; 50 mM Tris, 150 mM NaCl, 5 mM DTT, pH 7.5, 20 °C; 1:1 stoichiometry assumed
T3 construct: Cdc4, yeast F-box protein, WD40 domain, residues 367-744, with Arg664Gln in the allosteric pocket; also called Arg664Gln Cdc4^WD40; mutant (Arg664Gln) Cdc4^WD40; source: E. coli, purified as the wild type (Ni-NTA, Ulp protease, Ni-NTA, Superdex 200)
T3 sequence (looked up): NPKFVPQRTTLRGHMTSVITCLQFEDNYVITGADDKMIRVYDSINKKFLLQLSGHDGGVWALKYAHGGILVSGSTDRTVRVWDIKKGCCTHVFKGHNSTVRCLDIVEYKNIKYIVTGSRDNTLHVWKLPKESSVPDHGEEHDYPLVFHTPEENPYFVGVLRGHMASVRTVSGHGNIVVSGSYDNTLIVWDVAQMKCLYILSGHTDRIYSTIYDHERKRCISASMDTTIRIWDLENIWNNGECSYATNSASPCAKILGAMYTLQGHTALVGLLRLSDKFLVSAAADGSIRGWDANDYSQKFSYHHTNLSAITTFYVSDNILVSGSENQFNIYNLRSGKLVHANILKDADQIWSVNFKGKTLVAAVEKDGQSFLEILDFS

[4] = biological target: Cdc4^WD40 (isolated WD40 domain of the yeast F-box protein Cdc4, residues 367-744), wild type (yeast) (UniProt P07834); assay: as above
[5] = biological target: T4, R655Q Cdc4^WD40 (yeast, UniProt P07834 367-744, R655Q); assay: as above
T4 construct: Cdc4, yeast F-box protein, WD40 domain, residues 367-744, with Arg655Gln in the allosteric pocket; also called Arg655Gln Cdc4^WD40; source: E. coli, purified as the wild type (Ni-NTA, Ulp protease, Ni-NTA, Superdex 200)
T4 sequence (looked up): T3 sequence (looked up) with R289Q, Q298R

[6] = biological target: Cdc4-Skp1; settings: read-out: Kd for pSic1-Cdc4-Skp1 by intrinsic tryptophan (Trp) fluorescence; cited from earlier work
[7] = biological target: T5, Cdc4^WD40 (isolated WD40 domain of the yeast F-box protein Cdc4, residues 367-744), wild type (yeast, UniProt P07834 367-744); assay: ITC; 20 °C; cell 30 μM Cdc4^WD40, syringe 100 μM pSic1; 50 mM Na2HPO4 pH 7.2, 150 mM NaCl, 2 mM β-mercaptoethanol; single-site binding model; settings: both partners purified
T5 construct: Cdc4, yeast F-box protein, WD40 domain, residues 367-744; For the NMR experiments the protein was U-[15N,2H], Ile-delta1-[13CH3], Met-epsilon-[13CH3] labelled (IM-labelled); also called wt Cdc4^WD40; Cdc4 WD40 domain; source: E. coli BL21(DE3) codonPlus, purified (Ni-NTA, Ulp protease, Ni-NTA, Superdex 200)
T5 sequence (looked up): T3 sequence (looked up) with Q298R

[8] = biological target: T5, Cdc4^WD40 (isolated WD40 domain of the …); assay: other fluorescence titration; intrinsic Trp fluorescence (excitation 298 nm, emission 366 nm); 0.5 μM Cdc4, ligand titrated; 50 mM Tris, 150 mM NaCl, 5 mM DTT, pH 7.5, 20 °C; 1:1 stoichiometry assumed; settings: both partners purified
[9] = biological target: T3, R664Q Cdc4^WD40; assay: as above; settings: both partners purified
[10] = biological target: T5, Cdc4^WD40 (isolated WD40 domain of the …); assay: NMR titration; 2D 13C-1H TROSY HMQC at 10 °C on 200 μM IM-labelled Cdc4^WD40 with increasing concentrations of unlabelled ligand; 100% D2O, 50 mM Na2HPO4 pH 8.0, 150 mM NaCl, 2 mM DTT; settings: both partners purified
[11] = biological target: Cdc4; settings: Sic1 phosphorylated on between 4 and 6 low-affinity CPD sites; read-out: Kd of high-affinity Sic1-Cdc4 interaction; cited from earlier work
Source text: WD40 domains, and the related Kelch β-propeller domains, mediate protein interactions in many contexts and together form the largest domain family in the human genome. WD40 domain proteins are a predominant class of substrate receptor in the ubiquitin-proteasome system, found in F-box proteins and other subunits of the cullin-RING (CRL) ubiquitin ligases. The WD40 domain of the yeast F-box protein Cdc4 (Cdc4^WD40) recognizes substrates via phosphorylated motifs termed Cdc4 phosphodegrons (CPDs). One of the best characterized Cdc4 substrates is the cyclin dependent kinase inhibitor ...

T1 sequence (P07834 367-744 R655Q): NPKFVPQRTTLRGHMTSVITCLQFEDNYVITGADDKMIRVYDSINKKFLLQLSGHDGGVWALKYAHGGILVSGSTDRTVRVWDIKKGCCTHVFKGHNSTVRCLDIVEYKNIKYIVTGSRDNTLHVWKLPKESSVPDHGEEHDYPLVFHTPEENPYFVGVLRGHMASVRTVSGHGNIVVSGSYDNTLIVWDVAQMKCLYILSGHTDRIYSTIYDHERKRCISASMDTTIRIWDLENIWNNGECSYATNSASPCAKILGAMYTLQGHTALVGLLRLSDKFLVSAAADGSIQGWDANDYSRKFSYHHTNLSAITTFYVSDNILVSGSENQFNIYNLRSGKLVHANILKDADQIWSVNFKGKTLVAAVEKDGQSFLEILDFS

Which “change of affinity for Arg655Gln Cdc4^WD40 versus wild-type” value [1] does the source give for `CC(=O)NCC(=O)N[C@@H](CC(C)C)C(=O)N[C@@H](CC(C)C)C(=O)N[C@H](C(=O)N1CCC[C@H]1C(=O)N1CCC[C@H]1C(=O)N[C@@H](CCC(N)=O)C(=O)N[C@@H](CO)C(=O)NCC(N)=O)[C@@H](C)OP(=O)(O)O` [CycE] (Ac-GLL[pT]PPQSG-NH2; N-terminus and C-terminus assumed) here?
Its value is “did not significantly reduce”.

What about the “change of affinity for Arg664Gln Cdc4^WD40 versus wild-type” value [2] of the same molecule?
Its value is “did not significantly reduce”.

What does the source list for “CycE phosphopeptide (singly phosphorylated high-affinity CPD peptide derived from cyclin E)”?
Kd [3]: 1.47 µM; Kd [4]: 2.21 µM; Kd [5]: 2.9 µM

B1: pSic1 (N-terminal targeting region of Sic1, residues 1-90, phosphorylated to completion by Cln2-Cdc28-Cks1 kinase) (domain or fragment, yeast, UniProt P38634 1-90, looked up)
chain: MTPSTPPRSRGTRYLAQPSGNTSSSALMQGQKTPQKPSQNLVPVTPSTTKSFKNAPLLAPPNSNMGMTSPFNGLTSPQRSPFPKSSVKRT
modifications: phosphorylated to completion by Cln2-Cdc28-Cks1 kinase; contains 7 of the 9 Sic1 CPD sites (the residues are not listed)
notes: also called pSic1 (1-90); pSic1^1-90
For B1, which Kd [6] is on record?
The Kd was 0.6 µM.

What about the Kd [7] of the same molecule?
Its Kd is 0.8 ± 0.12 µM.

And the Kd [8]?
Its Kd is 1.3 µM.

What about the Kd ([5]; both partners purified) of the same molecule?
Its Kd is 4.16 µM.

What about the Kd [9] of the same molecule?
Its Kd is 4.96 µM.

B2: Ash1^18pT286/pT290/pS294 triphosphopeptide (unlabelled) (peptide)
peptide: AWSI[pT]PPV[pT]PPM[pS]PPTNR
notes: Ash1 transcriptional repressor, 18-residue peptide printed as AWSIpTPPVpTPPMpSPPTNR; the text says derived from Ash1 residues 283-299; the unlabelled form was used for NMR; also called triply phosphorylated Ash1 peptide; the peptide phosphorylated on all three CPDs
Does B2 bind [10]?
Result: binds

B3: Sic1: cyclin dependent kinase inhibitor, Cdc4 substrate; here phosphorylated on 4 to 6 CPD sites (protein, UniProt P38634 1-284, looked up)
Protein SIC1: MTPSTPPRSRGTRYLAQPSGNTSSSALMQGQKTPQKPSQNLVPVTPSTTKSFKNAPLLAPPNSNMGMTSPFNGLTSPQRSPFPKSSVKRTLFQFESHDNGTVREEQEPLGRVNRILFPTQQNVDIDAAEEEEEGEVLLPPSRPTSARQLHLSLERDEFDQTHRKKIIKDVPGTPSDKVITFELAKNWNNNSPKNDARSQESEDEEDIIINPVRVGKNPFASDELVTQEIRNERKRAMLRENPDIEDVITYVNKKGEVVEKRRLTDEEKRRFKPKALFQSRDQEH
modifications: phosphorylated
notes: here phosphorylated on 4 to 6 CPD sites
Which Kd [11] does the source give for B3 here?
Its Kd is roughly 1 µM.
